One molecule from publication PMC248471 (Biological Procedures Online, 2003) can be followed below.

The target in test [1] is T1, 72 kDa heat shock protein (HSP72), recombinant human (human, UniProt P0DMV8 1-641). Kind of test: SPR.
Test [2] addresses T1, 72 kDa heat shock protein (HSP72), …. The experiment in a line: SPR. The source holds these as a separate data set.

Like-named read-outs stand apart in the source and are kept apart here.

T1 sequence (P0DMV8 whole entry): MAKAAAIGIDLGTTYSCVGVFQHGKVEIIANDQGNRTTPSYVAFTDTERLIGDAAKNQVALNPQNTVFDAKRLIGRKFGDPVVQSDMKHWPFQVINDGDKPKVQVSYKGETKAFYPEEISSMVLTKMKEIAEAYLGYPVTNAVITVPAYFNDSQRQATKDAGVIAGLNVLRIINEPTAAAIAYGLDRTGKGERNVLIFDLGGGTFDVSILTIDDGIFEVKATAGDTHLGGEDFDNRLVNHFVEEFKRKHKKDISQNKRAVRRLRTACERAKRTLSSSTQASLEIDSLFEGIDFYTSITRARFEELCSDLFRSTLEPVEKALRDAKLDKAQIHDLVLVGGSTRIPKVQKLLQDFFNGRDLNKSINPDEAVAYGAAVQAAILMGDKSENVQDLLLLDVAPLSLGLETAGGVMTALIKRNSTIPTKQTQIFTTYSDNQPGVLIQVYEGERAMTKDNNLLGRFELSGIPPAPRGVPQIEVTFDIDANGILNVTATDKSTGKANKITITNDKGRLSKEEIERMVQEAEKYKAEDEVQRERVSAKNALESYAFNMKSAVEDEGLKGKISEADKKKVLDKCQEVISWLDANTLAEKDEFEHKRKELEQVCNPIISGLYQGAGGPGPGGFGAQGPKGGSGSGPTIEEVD

With DTDTPIVYNDRNLLD [Peptide N, the extreme carboxyl terminus (15 amino acids) of the Edmonston MV N protein], in test [1], the Kd amounted to 4 µM. Further, in test [2], the Kd was found to be 1 µM and the kon was 357 M⁻¹ s⁻¹.
